Reference: the nanobody polyreactivity screen of Harvey et al. (2022)

assay: yeast display, Sf9 membrane polyspecificity reagent, FACS + sequencing; frameworks hold sequencing errors
In short: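 In a synthetic yeast display library (Saccharomyces cerevisiae BJ5465), nanobody expression was induced with galactose for 36–48 hours. FACS gates were set low and high (top ~1%) using anti-HA fluorescence for expression and streptavidin fluorescence for binding of the Sf9 membrane reagent. Each polyreactivity label is drawn from the gate of origin.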

**Q.** For “QVQLVESGGGLVQAGGSLRLSCAASGFHFGSYAMGWNRQAPGKERELVASISSAGRTYYADSVKGRFTISRDNAKNTVYSQMNSLKPEDTAVYYCAAESGYPVYTYVSSGDYWGQGTQVTVSS”, which “polyreactivity (PSR sort gate)” value is on record?
**A.** low polyreactivity

**Q.** Which “polyreactivity (PSR sort gate)” value does the source give for “QVQLEESGGGLVQAGGSLRLSCAASGIIFIDYAMGWYRQAPGKERELVAAISNGGSTYYADSVKGSFTISRDNAKNTVYLQMNSLKPEDTEVYYCAAGGALASHWSKKLYDYWGQGTQVTVSS” here?
**A.** low polyreactivity

**Q.** Which “polyreactivity (PSR sort gate)” value does the source give for “QVQLVESGGGLVQAGGILRLSCAASGSTFGYNAMGWYRQAPGKERELVAAIRFSGGSTFYADSVKGRFTISRDNAKNTVYLQMNSLKPEDTAVYNCAAGSAYYSQRYFAYGYDSWGQGTQVTVSS” here?
**A.** low polyreactivity

**Q.** Which “polyreactivity (PSR sort gate)” value does the source give for “QVQLVESGGGLVQAGGSLRLSCAASGSTLAVYAMLWYRQAPGKERELVAAISYSGGGTYYADSVKGRFTISRDNAKNTVYLQMNSLKPEDTAVYYCATDLYYEYFTWDYYWGQGTQVTVSS” here?
**A.** low polyreactivity

**Q.** With “QVQLVESGGGLVQAGGSLRLICAASGIIFVRYVMGWYRQAPGKEMELVAAINWSGGSTYYADSVKGRFTISRDNAKYTVYLQMNSLKPEDTAVYFCCAGSARDDDYWGQGTQVTVSS” as the sequence, how does the “polyreactivity (PSR sort gate)” value read?
**A.** high polyreactivity

**Q.** With “QVQLVESGRGLVQAGGSLRLSCAASGFTFYYYAMGRYRQAPGKERELVAAISTRDGNTYYADSVKARFTISRDNAKNTVYLQMKSLKTEVTAVYYCAAAYFRYYPYDYWGQGTLVTVSS” as the sequence, how does the “polyreactivity (PSR sort gate)” value read?
**A.** low polyreactivity

**Q.** With “QVQLVESGGGLVQAGGSLRLSCAASGRIFDLYTMGWYRQATGKERELVAAIRWSDGSTYYADSVKGRFTISRDNAKNSVYLQMNSLKPVDTAVYYCAADTRTSYYNDDYDYWGQGTQVTVSS” as the sequence, how does the “polyreactivity (PSR sort gate)” value read?
**A.** low polyreactivity

**Q.** For “QVQLVESGGGLVQAGGSLRLSCAASGRIFYVYAMGWYRQAPRKERELVAAITSGGSTYYADSVKGRFTISRDNAKNTVYLQMNSLKPEDTAVYYCAAYNRGRFRPYRFEYWGQGTQVTVSS”, which “polyreactivity (PSR sort gate)” value is on record?
**A.** high polyreactivity

**Q.** With “QVQLVESGGGLVQAGGSLRLSWAASGGNFEYNAMGWYRQAPGKERELVAAITNGGSTNYADSVKGRFSISRDNAKNTVYIQMNSLKPDDTAVYYCATVFFVLPPTRFASWGQGTQVTVSS” as the sequence, how does the “polyreactivity (PSR sort gate)” value read?
**A.** low polyreactivity

**Q.** Which “polyreactivity (PSR sort gate)” value does the source give for “QVQLVESGGGLVQAGGSLRLSCAASGITFEDYAMGWYRQAPGKERELVAAISWSGDITYYADSVKGRFTISRDNAKNTVYLQMNSLKPEDTAVYYCAADLSPYGYDYWGQGTQVTVSS” here?
**A.** low polyreactivity

**Q.** For “QVQLVESGGGLVQAGGSLRLSCAASGSTFVPYTMGWYRQAPGKERELVAAISGSGGTDYADSVKGRFTISRDNAKITVYLQLNSLKPEDTAVYYCGTDGLDFWFIYDYWGQGTQVTVSS”, which “polyreactivity (PSR sort gate)” value is on record?
**A.** low polyreactivity

**Q.** For “QVQLVESGGGLVQAGGSLRLSCAASGGIFIGYAMGWYRQAPGKERELVAAISYSGGSTYYADSVKGRFTISRDNAKNTVYFQMNSLKPEDTALYYCAAQVERKYRWFNSWGQGTQVTVSS”, which “polyreactivity (PSR sort gate)” value is on record?
**A.** high polyreactivity

**Q.** Which “polyreactivity (PSR sort gate)” value does the source give for “QLQLVESGGGLVQAGGSLRLSCAASGSIFCQNNMGWYRQAPGKERELVDTITSAGSTYYADSVKGRFTISRANAQNTVYLQMNSLKPEYTAVFYCAAELYRYGFYVPIYPYSYDYWGQGTQVTVSS” here?
**A.** low polyreactivity

**Q.** Which “polyreactivity (PSR sort gate)” value does the source give for “QVQLVESGGGLVQAGGSLRLSCAAYSYVMGWNRQAPGKERELVAAISQSGGSTYYADSVKGRFTISRDNPKNTVYLQMNSLKPEDTAVYYCAARREPYQYNQYYSWGQGTKVTVSS” here?
**A.** high polyreactivity

**Q.** With “QVQLVESGGGLVQAGGSLRLSCAASGRIFRANAMGWYRQAPGKERELVAGITRRGGSTNYADSVKGRFTISRDNAKTTVYLQMNSLKPEDTAVYYCNRDVSLSTSIRMDYWGQGTQVTVSS” as the sequence, how does the “polyreactivity (PSR sort gate)” value read?
**A.** low polyreactivity

**Q.** With “QVQLVESGGGLVQAGGSLRLSCAASGSILFNNAMGWYRQAPGKERELVAAIRSNGGNTYYADSVKGRFTISCDNAKNTVYLQMNSLKPEDTAVYYCAAEKTLYGGGGWTRWFHYTYGYWGQGTQVTVSS” as the sequence, how does the “polyreactivity (PSR sort gate)” value read?
**A.** high polyreactivity

**Q.** For “QVQLVESGGGLVHAGGCLRISCAASGRIFWYNEMGWYRQATGKERELVADITPRGTRTHYADSVKGRFTISRDNAKNTVYLQMNSLKPEDPGVYYCAKGWYTVDWDAPVFSERGEYWGQGSQVTVSS”, which “polyreactivity (PSR sort gate)” value is on record?
**A.** low polyreactivity
